Assay results: the nanobody polyreactivity screen of Harvey et al. (2022)

Experiment: yeast display, Sf9 membrane polyspecificity reagent, FACS + sequencing; frameworks hold sequencing errors
In short: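 Sorting gates, low and high (top ~1%), were placed on anti-HA fluorescence to track expression and on streptavidin fluorescence to track reagent binding. A clone's polyreactivity label is taken from the gate it came out of. The reagent was 10% biotinylated, detergent-solubilized Sf9 membrane, applied for 1 hour at 4 °C to galactose-induced yeast display cells.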

Sequence: QVQLVESGGGLVQAGGSLRLSCAASGFTFGSYAMGWYRQATGKERELVAVITRSGRTNYADSVKGRFTITRDNAKNTVFLQMNSMKPEDTAVYYCNADDVDDEVSPDLTEMDNWGLGTQVTVSS
- polyreactivity (PSR sort gate): low polyreactivity

Sequence: QVQLVESGGGLVQAGGSLRLSCAASGFTFGTYAMGWYRQAPGKERELVAAISKRGGSTYYADSVKGRFTISRDNAKNTVYLQMNSLKPEDTAVYYCATGSYTTYGYGYWGQGTQVTVSS
- polyreactivity (PSR sort gate): high polyreactivity

Sequence: QVQLVESGGGLVQAGGSLRLSCAASGFTFGVYAKGWYRQEPGKEREMVAAISSRRGSTYYADSVKGRFTISRDNAKNTVYLQMNSLKPEDTAVYYCAKRLGNTVGKEDYWGQGTQVTVTS
- polyreactivity (PSR sort gate): low polyreactivity

Sequence: QVQLVESGGGLVQAGGSLRLSCAASGFTFGVYALGGYRQAPGKEREFVAAISRSGSSTYYADSVKGRFTISRDNAKNTVYLQMNSLKPEDTAVYYCAKRSGNRYSFDYWGQGTQVTVSS
- polyreactivity (PSR sort gate): high polyreactivity

Sequence: QVQLVESGGGLVQAGGSLRLSCAASGFTFGWYAMGWYRQAPGKEREFVATITYSGGSTYYADSVKGRFTISRDNAKNTVYLQMNSLKPEDTAVYYCAAARYWYRRFDYWGQGTQVTVSS
- polyreactivity (PSR sort gate): high polyreactivity

Sequence: QVQLVESGGGLVQAGGSLRLSCAASGFTFGYYAMGWYRQAPGKERELVAAISRSGGRTYYADSVKGRFTISRDNAKNTVYLEMNSLKPEDTAVYYCNAVIHGWTLDYEYWGQGTQVTVSS
- polyreactivity (PSR sort gate): high polyreactivity

Sequence: QVQLVESGGGLVQAGGSLRLSCAASGFTFGYYAMGWYRQAPGKERELVAAISSSGGSTYYADSVKGRFTISRDNAKNTVYLQMNSLKPEDTAVYYCAVVVFSRVYRYFTSDYWGQGTQVTVSS
- polyreactivity (PSR sort gate): high polyreactivity

Sequence: QVQLVESGGGLVQAGGSLRLSCAASGFTFGYYAMGWYRQAPGKERELVAAITYDGDITYYADSVKGRFTISRDNAKNTVYLQMNSLKPEDTAVYYCNRDVLTFNYDYWGQGTQVTVSS
- polyreactivity (PSR sort gate): low polyreactivity

Sequence: QVQLVESGGGLVQAGGSLRLSCAASGFTFGYYAMGWYRQAPGKERELVAAITYDGDITYYADSVKGRFTISRDNAKNTVYLQMNSLKPEVTAVYYCNRDVLTFNYDYWGQGTQVTVSS
- polyreactivity (PSR sort gate): low polyreactivity

Sequence: QVQLVESGGGLVQAGGSLRLSCAASGFTFGYYAMGWYRQAPGKERELVATIDRGGGTSYADSVKGRFTISRDNAKNTVYLQMNSLKPEDTAVYYCNRACYGAKARRYRSYWGQGTQVTVSS
- polyreactivity (PSR sort gate): high polyreactivity

Sequence: QVQLVESGGGLVQAGGSLRLSCAASGFTFGYYGMGWSRQAPGKERELVAGISSSGSRTYYADSVKGRFTISRDNAKNTVYLQMNSLKPEDTAVYYCNKYYSGKSYTGEDYWGQGTQVTVSS
- polyreactivity (PSR sort gate): high polyreactivity

Sequence: QVQLVESGGGLVQAGGSLRLSCAASGFTFGYYTMGWYRQAPGKERELVAAITWRGTTYYADSVKGRFTISRDNAKNTVYLQMNSLKPEDTAVYYCATVVLLRIWGGYWGQGTQVTVSS
- polyreactivity (PSR sort gate): high polyreactivity

Sequence: QVQLVESGGGLVQAGGSLRLSCAASGFTFGYYTMGWYRQAPGKERELVASISRTGGRTYADSVKGRFTISRDNAKNTVYLQMNSLKPEDTAVYYCAAYRQGSAYDYWGQGTQVTVSS
- polyreactivity (PSR sort gate): high polyreactivity

Sequence: QVQLVESGGGLVQAGGSLRLSCAASGFTFGYYVMGWYRQAPGKERELVAAITSGGRTKYADSVKGRFTISRDNAKNTVYLQMNSLKPEDTAVYYCAAKSRVHVDYWGQGTQVTVSS
- polyreactivity (PSR sort gate): high polyreactivity

Sequence: QVQLVESGGGLVQAGGSLRLSCAASGFTFHFYAMGWYRQAPGKEREWVAAISWRGSSTYYADSVKGRFTISRDNAKNTVYLQMNSLKPEDTAVYYWNALYYYPYDYWGQGTQVTVSS
- polyreactivity (PSR sort gate): high polyreactivity

Sequence: QVQLVESGGGLVQAGGSLRLSCAASGFTFHSYAMGWYIQAPGKERELVAAISARGGSTYYADSVKGRFTISRDNAKNTVYLQMNSLKPEDTAVYYCAAYSYQVRFYYWGHGTQVTVSS
- polyreactivity (PSR sort gate): high polyreactivity

Sequence: QVQLVESGGGLVQAGGSLRLSCAASGFTFHSYAMGWYRQAPGKERELVAAISYSGGSTYYADSVKGRFTISRDNAKNTVYLQMHSLKPEDTAVYYCAGLRYIYGYANDYWGQGTQVTVSS
- polyreactivity (PSR sort gate): low polyreactivity

Sequence: QVQLVESGGGLVQAGGSLRLSCAASGFTFHYYAMGRYRQAPGKERELVAAISWDTGSTYYADSVKGRFTISRDNAKNTVYLQMNSLKPEDTAVYYCNAQFYWYHGEWVFYGLSDDFDYWGQGTQVTVSS
- polyreactivity (PSR sort gate): high polyreactivity

Sequence: QVQLVESGGGLVQAGGSLRLSCAASGFTFHYYTMAWYRQAPGKEREFVAAMSKSGGRTYYADSVKGRFTISRDKAKNTVYLQMNSLKPEDTAVYYCSTVGYWRNRHDYWGQGTQVTVSS
- polyreactivity (PSR sort gate): high polyreactivity

Sequence: QVQLVESGGGLVQAGGSLRLSCAASGFTFHYYVMGWYRQAPGKERELVAAINAGGVSTYYADSVKGRFTISRDNAKNTVYLQMNSLKPEDTAVYYCNARVRVRLGRNWSSYYYWGQGTQVTVSS
- polyreactivity (PSR sort gate): high polyreactivity

Sequence: QVQLVESGGGLVQAGGSLRLSCAASGFTFIDYTMGWYRQAPGKERELVARITDTGSTNYADSVKGRFTISRDNAKNTVYLQMNRLKPEDTAVYYCNKDDRNDRTIPGYDPEYDYWGQGTQVTVSS
- polyreactivity (PSR sort gate): low polyreactivity

Sequence: QVQLVESGGGLVQAGGSLRLSCAASGFTFIRNAMGWYRQAPGKERELVAVITRSGGSTYYADSVKGRFTISRDNAKNTVYLQMNSLKPQDTAVYYCAATLRYSPRRRYDYWGQGTQVTVSS
- polyreactivity (PSR sort gate): high polyreactivity

Sequence: QVQLVESGGGLVQAGGSLRLSCAASGFTFIRYAMGWYIQAPGKERELVASISNRGGRTYYADSVKGRFTISRDNAKNTFYLQMNSLKPEDTAVYYCAAKFSSYWSRFGYWGQGTQVTVSS
- polyreactivity (PSR sort gate): high polyreactivity

Sequence: QVQLVESGGGLVQAGGSLRLSCAASGFTFIRYAMGWYRQAPGKEREFVAAISWRVGITYYADSVKGRFTMSRDNAKNTVYLQMNSLKPEDTAVYYCARDYRNPPFAYEYWGQGTQVTVSS
- polyreactivity (PSR sort gate): low polyreactivity

Sequence: QVQLVESGGGLVQAGGSLRLSCAASGFTFIRYAMGWYRQAPGKERELVATITRSGGSTYYADSVKGRFTISRDNAKNTVYLQMNSLKPEDTAVYYCAKRGTLGSYYYWGQGTQVTVSS
- polyreactivity (PSR sort gate): high polyreactivity

Sequence: QVQLVESGGGLVQAGGSLRLSCAASGFTFITNAMGLYRQAPGKERELVASISIGGSTNYADSVKGRFTISRDNAKNTVYLQMNSLKPEDTAVYYCAARVYRRLFLPGRYGRPLGYWGQGTQVTVSS
- polyreactivity (PSR sort gate): high polyreactivity

Sequence: QVQLVESGGGLVQAGGSLRLSCAASGFTFIYYAMGWYRQAPGKERELVAAISASGGSTYYADSVKGRFTISRDNSKNTVYLQMNSLKPEDTAVYYCDAYRVWYRGYPMGYWGQGTQVTVSS
- polyreactivity (PSR sort gate): high polyreactivity

Sequence: QVQLVESGGGLVQAGGSLRLSCAASGFTFKDNTMGWYRQAPGKEGELVAAISSRGGSTYYADSVKGRFTISRDTAKNTVYLQMNSLKPEDTAVYYCAARSHSSRSRSPGDYWGQGTQVTVSS
- polyreactivity (PSR sort gate): high polyreactivity

Sequence: QVQLVESGGGLVQAGGSLRLSCAASGFTFKFNTMGWYRQAPGKERELVAAISWRGGDTSYADSVKGRFTISRDNAKNNVYLQMNSLKPEDTAVYYCAASPRYPYWYDYWGQGTQVTVSS
- polyreactivity (PSR sort gate): low polyreactivity

Sequence: QVQLVESGGGLVQAGGSLRLSCAASGFTFKGYAMGWYRQAPGKERELVAAITRGGSTYYADSVKGRFTISRDNAKNTVYLQMNSLKPEDTAVYYCAARGRGHGTTPNDYWGQGTQVTVSS
- polyreactivity (PSR sort gate): high polyreactivity

Sequence: QVQLVESGGGLVQAGGSLRLSCAASGFTFKHYTMGWYRQAPGKERELVAAISYSGGSTYYADSVKGRFTISRDNAKNTVYLQMNSLKPEDTAVYYCAADAVKASVSYIVPYAAYDYWGQGTQVTVSS
- polyreactivity (PSR sort gate): low polyreactivity

Sequence: QVQLVESGGGLVQAGGSLRLSCAASGFTFKINGKGWYRQAPGKEREFVATIRTSTGRTYYADSVKGRFTISRDNAKNTVYLQMNSLKPEDTAVYYCATDYLFERLLQEMDYWGQGTQVTVSS
- polyreactivity (PSR sort gate): high polyreactivity

Sequence: QVQLVESGGGLVQAGGSLRLSCAASGFTFKKYAMGWYRQAPGKERELVASITWSGGSTSYADSVKGRFTISRDNAKNTVYLQMNSRKPEDTAVYYCDAATFVYRLRYNRFDYWGQGTQVTVSS
- polyreactivity (PSR sort gate): high polyreactivity

Sequence: QVQLVESGGGLVQAGGSLRLSCAASGFTFKRNAMGWYRQAPGKERELVAAITKSGGSTYYADSVKGRFTISRDNAKNTVYLQMNSLQPEDTAVYYCNTVHYYRDYDYWGQGTQVTVSS
- polyreactivity (PSR sort gate): high polyreactivity

Sequence: QVQLVESGGGLVQAGGSLRLSCAASGFTFKRYAMGWYRQAPGKEREFVAAITRGGGSTYYTDSVKGRFTISRDNAKNTVYLQMNSLKPEYTAVYYCAAVLYYYWRGYGPRSNRYDYWGQGTQVTVSS
- polyreactivity (PSR sort gate): high polyreactivity

Sequence: QVQLVESGGGLVQAGGSLRLSCAASGFTFKRYAMGWYRQAPGKERELVAAISWSGGSTYYADSVKGRFTISRDNAKNTVYLQMNSLKPEDTAVYYCNAVCRFSTRREYWGQGTQVTVSS
- polyreactivity (PSR sort gate): high polyreactivity

Sequence: QVQLVESGGGLVQAGGSLRLSCAASGFTFKSYAMGWYRQAPGKERELVAGISRNGGRTYYADSVKGRFTISRDNAKNTVYLQMNSLKPEDTAVYYCAARIYTSRDNYWGQGTQVTVSS
- polyreactivity (PSR sort gate): high polyreactivity

Sequence: QVQLVESGGGLVQAGGSLRLSCAASGFTFKSYTMGSYRQAPGKERELVAAISRRDGSTYYADSVKGRFTISRDNAKNTVYLQMNSLKPEDTAVYYCAKVWYGDRNIDRYDYWGQGTQVTVSS
- polyreactivity (PSR sort gate): high polyreactivity

Sequence: QVQLVESGGGLVQAGGSLRLSCAASGFTFKYYAMGWYRQAPGKERELVAAISSGATTYYADSVKGRFTISRDNAKNTVYLQMNSLKPEDTAVYYCNANRFRRYDWGQGTLVTVSS
- polyreactivity (PSR sort gate): high polyreactivity

Sequence: QVQLVESGGGLVQAGGSLRLSCAASGFTFKYYAMGWYRQAPGKERELVADITRSGGSTYYADSVKGRFTISRDTAKITVYLQMNSLKPEDTAVYYCAVDPVRYPYSYDYWGQGTQVTVSS
- polyreactivity (PSR sort gate): high polyreactivity

Sequence: QVQLVESGGGLVQAGGSLRLSCAASGFTFKYYAMGWYRQAPRKERELVAAITSRGGSTYYADSVKGRFTISRDNAKNTVYLQMNSLKPEDTAVYYCAARFRKIGVAFDYWGQGTQVTVSS
- polyreactivity (PSR sort gate): high polyreactivity

Sequence: QVQLVESGGGLVQAGGSLRLSCAASGFTFKYYDMGWYRQAPGKERELVAAIDTSGGNTYYADSVKGRFTISRDNAKNTVYLQMNSLKPEDTAVYYCAATVPYYHDDYWGQGTQVTVSS
- polyreactivity (PSR sort gate): low polyreactivity

Sequence: QVQLVESGGGLVQAGGSLRLSCAASGFTFKYYVMGSYRQAPGKERFVAAITGSGASTYYADSVKGRFTISRDNAKNTVFLQMNSLKPEETAVYYCNADYYAGRYRYDYWGQGTQVTVSS
- polyreactivity (PSR sort gate): high polyreactivity
